Values quoted from earlier work as cited in patent US7754242B2, “Inhalable sustained therapeutic formulations” (Alkermes, Inc., priority 2002, dated 2010).
Read-outs that look alike come from different tables or passages of the source.

Experiments:
[1] = primates; dry powder formulation via pulmonary delivery
[2] = healthy volunteers; inhaled
[3] = human subjects; dry powder formulation via pulmonary delivery

In the case of “insulin: Insulin given by pulmonary delivery (dry powder formulation, inhaled), literature reports”, the “Time to peak insulin level” value [1] is listed as “about 30 minutes”, the “Time to half-maximal action (glucose infusion rate)” value [2] is listed as “about 30 minutes” and the “Time to peak insulin level” value [3] is listed as “about 20 minutes”.
